Test results published in article PMC3852207, “The Structure of the RLIP76 RhoGAP-Ral Binding Domain Dyad: Fixed Position of the Domains Leads to Dual Engagement of Small G Proteins at the Membrane” (Structure(London, England:1993), 2013).

T1: His-RLIP76 GAP-GBD didomain (residues 184-446) (human, UniProt Q15311 184-446)
T1 construct: Construct details are in Rajasekar et al., 2012; also called RLIP76 didomain; RhoGAP-GBD didomain; source: expressed and purified as described previously (Rajasekar et al., 2012)
T1 sequence (looked up): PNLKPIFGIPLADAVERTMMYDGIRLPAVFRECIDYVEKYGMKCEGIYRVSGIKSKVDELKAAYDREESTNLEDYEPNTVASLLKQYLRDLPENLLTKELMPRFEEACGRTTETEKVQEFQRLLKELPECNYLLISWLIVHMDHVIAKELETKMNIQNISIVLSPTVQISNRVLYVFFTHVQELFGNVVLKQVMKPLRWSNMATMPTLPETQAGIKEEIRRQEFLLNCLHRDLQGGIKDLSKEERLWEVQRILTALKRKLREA

B1: His-RLIP76 GAP insert (RLIP76 GAP domain with the F-G loop of p50 RhoGAP) (domain or fragment)
chain: PNLKPIFGIPLADAVERTMMYDGIRLPAVFRECIDYVEKYGMKCEGIYRVSGIKSKVDELKAAYDREESTNLEDYEPNTVASLLKQYLRDLPENLLTKELMPRFEEACGRTTETEKVQEFQRLLKELPECNYLLISWLIVHMDHVIAKELETKMNIQNISIVLSPTVLWAKDAAITLKAINPINRVLYVFFTHVQELFGNVVLKQVMKPL
notes: Made from the pET16b RLIP GAP domain construct; also called GAP insert mutant; RLIP76 GAP insert domain
B2: Q61L Cdc42·[3H]GTP (natural protein)
chain: not shown
notes: Cdc42, GTPase-deficient mutant Q61L, loaded with [3H]GTP; Q61L is stated for the SPA experiments in general; also called [3H]GTP·Cdc42
B3: RalB (natural protein, UniProt P11234 1-206, looked up)
chain: MAANKSKGQSSLALHKVIMVGSGGVGKSALTLQFMYDEFVEDYEPTKADSYRKKVVLDGEEVQIDILDTAGQEDYAAIRDNYFRSGEGFLLVFSITEHESFTATAEFREQILRVKAEEDKIPLLVVGNKSDLEERRQVPVEEARSKAEEWGVQYVETSAKTRANVDKVFFDLMREIRTKKMSENKDKNGKKSSKNKKSFKERCCLL
notes: RalB small GTPase

Key:
Q61L Rac1·[3H]GTP = Q61L Rac1·[3H]GTP (UniProt P63000 1-192, Q61L); experiment: scintillation proximity assay (competition); competitor titrated into 30 nM [3H]GTP·Rac1 or [3H]GTP·Cdc42 and 30 nM GST-p50 RhoGAP immobilised on fluoromicrospheres via an anti-GST antibody; partial competition model for RLIP76 GAP and didomain, full competition for GAP insert and free p50 RhoGAP; conditions: both partners purified
GST-PAK1 = target: T2, GST-PAK1 (UniProt Q13153 1-545); experiment: scintillation proximity assay (direct); GST-PAK1 on SPA beads as control binding partner; concentration of Q61L Rac1/Cdc42·[3H]GTP varied; apparent Kd; conditions: both partners purified
T2 construct: PAK1, positive control effector of Cdc42 and Rac1

[1] = target: B1; experiment: scintillation proximity assay (competition); competitor titrated into 30 nM [3H]GTP·Rac1 or [3H]GTP·Cdc42 and 30 nM GST-p50 RhoGAP immobilised on fluoromicrospheres via an anti-GST antibody; partial competition model for RLIP76 GAP and didomain, full competition for GAP insert and free p50 RhoGAP; conditions: both partners purified
[2] = target: T1, His-RLIP76 GAP-GBD didomain (residues …); experiment: not stated; data not shown

Binder: B1
- Kd (Q61L Rac1·[3H]GTP): 1.44 µM

Binder: B2
- Kd (GST-PAK1): 0.032 µM
- Kd [1]: 1.27 µM

Binder: B3
- Kd [2]: ~0.2 µM
